Assay results published in US7419813B2, “Fructosyl peptide oxidase” (Kikkoman Corporation, priority 2001, dated 2008).

Key:
Type in all cases: biochemical
[1] = Reaction with products obtained by digesting α-glycated hexapeptide with protease (96-well plate, 510 nm); details: purified enzyme; compared to 100% activity for fructosyl glycine; monitored at 510 nm for 70 minutes
Excerpt: Glycated hemoglobin (HbA1c) may be treated with endoproteinase Glu-C to liberate α-glycated hexapeptide (fructosyl Val-His-Leu-Thr-Pro-Glu) from the glycated hemoglobin β-chain (Clin. Chem., 43; 10 1944-1951, 1997). Fructosyl Val-His-Leu-Thr-Pro-Glu (available from PEPTIDE INSTITUTE, INC), which is the same substance as the α-glycated hexapeptide, was used in the following experiment.
α-glycated hexapeptide (fructosyl Val-His-Leu-Thr-Pro-Glu, MW=856, available from PEPTIDE INSTITUTE, INC) (3.434 mg) was dissolved in 0.2 ml of water.
Molsin (15 mg, available from Kikkoman Corp.) was dissolved in 0.2 ml of buffer (10 mM acetate buffer, pH 3.0)
A (100 μl), B (5 μl) and C (5 μl) were mixed in a microtube and incubated at 37° C. for 17 hours. The reaction solution was then filtered using Microcon 10 (available from Amicon) to remove protease.
(§1) Developer solution consisted of the following materials:
• (a) Enzyme purified from Achaetomiella virescens ATCC 32393 • (b) Enzyme purified from Eupenicillium terrenum ATCC 18547 • (c) Enzyme purified from Coniochaeta sp. […]
Reaction substrate (D: a, b) (20 μl), developer solution (E) (20 μl) and the inventive oxidase (F: a-d) (10 μl) were mixed in 96-well assay plates for reaction. Each plate was monitored at 510 nm using a plate reader (Immuno Mini NJ-2300, available from Nalge Nunc International K. K.) for 70 minutes. […]

[2] = Enzyme activity assay (hydrogen peroxide, POD-4-AA colour at 510 nm), fructosyl valyl histidine substrate; details: for Activity per medium / Substrate specificity (% relative activity) FVH: crude enzyme sample; for action on fructosyl valyl histidine and ε-fructosyl lysine (in words): crude enzyme samples of Tables 1 and 2
Excerpt: Enzyme activities of the oxidase of the invention and the oxidase of the invention that have less action on ε-fructosyl lysine (hereinafter, the term “the oxidases of the invention” may comprise both the oxidase of the invention and the oxidase of the invention that have less action on ε-fructosyl lysine) may principally be determined by determining the amount of α-ketoaldehyde, peptide, hydrogen peroxide or the like which are produced through enzyme reaction or by determining the amount of oxygen consumed by the enzyme reaction. Hereinafter, a method for determining the amount of hydrogen peroxide will be described as one example. Unless otherwise noted, fructosyl valyl histidine is used as a substrate for determining the activities of the oxidases of the invention. Titer of the enzyme is defined such that an amount of enzyme for producing 1 μmol hydrogen peroxide per minute is 1U as determined using a fructosyl valyl histidine substrate. 1.0 kU of peroxidase (Toyobo Co., Ltd, TYPE III) and 100 mg of 4-aminoantipyrine (Tokyo Kasei Kogyo Co., Ltd.) are dissolved in 0.1 M potassium phosphate buffer (pH 8.0) to a constant volume of 1L. 25 ml of a commercially available 2% solution (available from Nacalai Tesque, Inc.) is dissolved in ion exchange water to a constant volume of 100 ml. 624 mg of fructosyl valyl histidine is dissolved in ion exchange water to a constant volume of 10 ml. Alternatively, fructosyl glycine or ε-fructosyl lysine of 357 mg or 462 mg, respectively, may be dissolved in ion exchange water to a constant volume of 10 ml to be used as a substrate. Fructosyl valine histidine was prepared as described in Japanese Patent Application Laid-Open (kohyo) No. 2001-95598. Fructosyl glycine and ε-fructosyl lysine were prepared according to a method of Horiuchi et al. (Agric. Biol. Chem., 53, 103-110, 1989; Agric. Biol. Chem., 55, 333-338, 1991). 2.7 ml of Reagent 1, 100 μl of Reagent 2 and 100 μl of enzyme solution are mixed and pre-heated at 30° C. for 5 minutes. Then, 100 μl of Reagent 3 is added and thoroughly mixed to determine absorbance at 510 nm using a spectrophotometer (U-[…], Hitachi, Ltd.). Measurement values indicate changes in the absorbance per minute at 510 nm after 1 to 3 minutes. A control solution was prepared in the same manner as described above except 100 μl ion exchange water was added instead of 100 μl Reagent 3. A standard solution of hydrogen peroxide and ion exchange water were used instead of Reagent 3 and the enzyme solution, respectively, to prepare a graph showing relationship with respect to the level of color. Referring to this graph, micromole of hydrogen peroxide produced per minute at 30° C. is calculated and used as the unit for expressing the activity of the enzyme solution. The presence of action on ε-fructosyl lysine can be determined in the same manner by using Reagent 3 (substrate solution) containing ε-fructosyl lysine substrate instead of fructosyl valyl histidine substrate.

[3] = Optimum temperature range of the enzyme reaction; details: purified oxidase
Protocol: For example, a reaction solution having the same composition as that of a reaction solution used for the activity assay described later is used to determine activities of the enzyme at various temperatures, thereby determining a suitable temperature range for action. The oxidases of the invention may, for example, have a suitable temperature range of 20-50° C., preferably 25-45° C. For example, a reaction solution having the same composition as that of a reaction solution for the activity assay described later is used to determine activities of the enzyme at various temperatures, thereby determining a suitable temperature range. The oxidases of the invention that have less action on ε-fructosyl lysine may, for example, have a suitable temperature range of 20-50° C., preferably 25-40° C. The activity of the inventive oxidase was assayed at different temperatures using reactions which consisted of the same compositions as those used in the above-described activity assay.

[4] = Reaction assay in 96-well plate with fructosyl glycine (control substrate); details: purified enzyme; control substrate set to 100%
Protocol: Fructosyl glycine (4.5 mg) was dissolved in 1 ml of water.
as §1
• (a) Enzyme purified from Achaetomiella virescens ATCC 32393 • (b) Enzyme purified from Eupenicillium terrenum ATCC 18547 • (c) Enzyme purified from Coniochaeta sp. NISL 9330 (FERM BP-7798) • (d) 20 mM phosphate buffer, pH 8.0 (2) Reaction Assay
Reaction substrate (D: a, b) (20 μl), developer solution (E) (20 μl) and the inventive oxidase (F: a-d) (10 μl) were mixed in 96-well assay plates for reaction. Each plate was monitored at 510 nm using a plate reader (Immuno Mini NJ-2300, available from Nalge Nunc International K. K.) for 70 minutes. The results are shown as % relative activity when compared to 100% activity for fructosyl glycine (Table 4). […] It was confirmed that all of the inventive oxidases were reactive with the protease-digested products of α-glycated hexapeptide.

[5] = relative to activity for ε-fructosyl lysine (100%)
[6] = strain cultured on enzyme inducible medium 1 at 30° C. for 4 days, Tables 1 and 2

Row | Molecule | % relative activity on protease-digested α-glycated hexapeptide [1] | Activity per medium ([2]; Eupenicillium strains on enzyme induction media 1 at 30° C. for 4 days, Table 3) | Substrate specificity (% relative activity) FVH ([2]; reference substrate set to 100%) | Substrate specificity (% relative activity) FVH [2, 5] | Activity per medium [2, 6] | action on fructosyl valyl histidine and ε-fructosyl lysine (in words) [2] | temperature of maximum activity (100%) [3] | optimum temperature range ([3]; relative activities of 50% or 60% or higher) | % relative activity on fructosyl glycine [4]
1 | Eupenicillium terrenum ATCC 18547: fructosyl peptide oxidase produced by Eupenicillium terrenum ATCC 18547 with less action on ε-fructosyl lysine; amino acid sequence SEQ ID NO: 3 (protein, listed as Eupenicillium terrenum) MAHSRASTKVVVVGGGGTIGSSTALHLIRSGYTPSNITVLDVYKTPSLQSAGHDLNKIMGIRLRNGPDLQLSLESLDMWQNDELFKPFFHQVGMIDCSSSKEGIENLRRKYQTLLDAGIGLEKTNVWLESEDEILAKAPNFTREQVKGWKGLFCTDGGWLAAAKAINAIGIFLQDKGVKFGFGGAGTFQQPLFAADGKTCIGLETTDGTKYFADKVVLAAGAWSPTLVDLEDQCVSKAWVFAHIQLTPKEADAYKNVPVVYDGEYGFFFEPNEYGVIKVCDEFPGFSRFKLHQPYGAASPKMISVPRSHAKHPTDTYPDASEVTIRKAIARFLPEFKDKELFNRTMCWCTDTADANLLICEHPKWKNFILATGDSGHSFKLLPNIGKHVVELLEGSLSQEMAGAWRWRPGGDALRSRRGAPAKDLAEMPGWKHDAHL | 9.5% | 2.8 U/L | 100% | 1023% | 2.8 U/L | acted well on fructosyl valyl histidine but less on ε-fructosyl lysine | around 35 °C | 25-40 °C | 100%
2 | Coniochaeta sp. NISL 9330: fructosyl peptide oxidase produced by Coniochaeta sp. NISL 9330 (FERM BP-7798) with less action on ε-fructosyl lysine; amino acid sequence SEQ ID NO: 1 (protein, listed as Coniochaeta sp.) MTSNRADTRVIVVGGGGTIGSSTALHLVRSGYAPANITVLDTFEIPSAQSAGHDLNKIMGIRLRNKVDLQMSLEARQMWKEDELFQPFFHNTGRMDCEHTPEGIEDLKKQYQALHDAGAGLEKTHAWLDNEDEILSKMPLLQRDQIQGWKAIWSQDGGWLAAAKAINAIGQFLKERGVKFGFGGAGSFKQPLFDDEGTTCIGVETADGTKYYADKVVLAAGAWSPTLVDLEDQCCSKAWVYAHIQLTPEEAAEYKGVPVVYNGEFGFFFEPNEFGVIKVCDEFPGFSRFKEHQPYGAPSPKHISVPRSHAKHPTDTYPDASEVSIKKAIATFLPRFQDKELFNRALCWCTDTADAALLMCEHPKWKNFILATGDSGHSFKILPNVGKHVVELIEGRLPEEMAYQWRWRPGGDALKSRRAAPPKDLADMPGWKHDPKL | 10.0% | – | – | 165% | 70.1 U/L | acted well on fructosyl valyl histidine but less on ε-fructosyl lysine | around 40 °C | – | 100%
